# Source: patent US20240192215A1 (E AND S HEALTHCARE, published 2024)
# T1: Peptide_012 (human)
# T1 construct: 15-mer on microarray; not native form, includes recombinant insert region
# T1 peptide: HHHHHHHVKQIESKT
# T2: Peptide_013 (human)
# T2 construct: 15-mer on microarray; not native form, includes recombinant insert region
# T2 peptide: HHHHHHVKQIESKTA
# T3: Peptide_015 (human)
# T3 construct: 15-mer on microarray; not native form, includes recombinant insert region
# T3 peptide: HHHHVKQIESKTAFQ
# T4: Peptide_018 (human)
# T4 construct: 15-mer on microarray; not native form, includes recombinant insert region; also called HVKQIESKTAFQEAL
# T4 peptide: HVKQIESKTAFQEAL
# T5: Peptide_019 (human)
# T5 construct: 15-mer of hTrx1 on microarray
# T5 peptide: VKQIESKTAFQEALD
# T6: Peptide_020 (human)
# T6 construct: 15-mer of hTrx1 on microarray
# T6 peptide: KQIESKTAFQEALDA
# T7: Peptide_022 (human)
# T7 construct: 15-mer of hTrx1 on microarray
# T7 peptide: IESKTAFQEALDAAG
# T8: Peptide_025 (human)
# T8 construct: 15-mer of hTrx1 on microarray
# T8 peptide: KTAFQEALDAAGDKL
# T9: Peptide_051 (human)
# T9 construct: 15-mer of hTrx1 on microarray
# T9 peptide: PCKMIKPFFHSLSEK
# T10: Peptide_084 (human)
# T10 construct: 15-mer of hTrx1 on microarray
# T10 peptide: SECEVKCMPTFQFFK
# T11: Peptide_085 (human)
# T11 construct: 15-mer of hTrx1 on microarray
# T11 peptide: ECEVKCMPTFQFFKK
# T12: Peptide_092 (human)
# T12 construct: 15-mer of hTrx1 on microarray
# T12 peptide: PTFQFFKKGQKVGEF
# T13: Peptide_093 (human)
# T13 construct: 15-mer of hTrx1 on microarray
# T13 peptide: TFQFFKKGQKVGEFS
# T14: Peptide_094 (human)
# T14 construct: 15-mer of hTrx1 on microarray
# T14 peptide: FQFFKKGQKVGEFSG
# T15: Peptide_011
# T15 peptide: HHHHHHHHVKQIESK
# T16: Peptide_027
# T16 peptide: AFQEALDAAGDKLVV
# T17: Peptide_032
# T17 peptide: LDAAGDKLVVVDFSA
# T18: Peptide_067
# T18 peptide: SNVIFLEVDVDDCQD
# T19: Peptide_087
# T19 peptide: EVKCMPTFQFFKKGQ
# T20: Peptide_090
# T20 peptide: CMPTFQFFKKGQKVG
# T21: Peptide_102
# T21 peptide: KVGEFSGANKEKLEA
# T22: Peptide_002
# T22 peptide: ATAADVHSQHHHHHH
# T23: Peptide_005 (human)
# T23 construct: 15-mer on microarray; not native form, recombinant insert region
# T23 peptide: ADVHSQHHHHHHHHV
# T24: human thioredoxin-1 (Trx1) (human, UniProt P10599 1-105)
# T24 construct: also called hTrx1; hTRX1
# T24 sequence (looked up): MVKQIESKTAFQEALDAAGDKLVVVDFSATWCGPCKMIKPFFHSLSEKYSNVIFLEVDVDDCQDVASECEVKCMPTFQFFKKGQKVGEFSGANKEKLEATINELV
# T25: Peptide_004 (human)
# T25 construct: 15-mer on microarray; not native form, recombinant insert region
# T25 peptide: AADVHSQHHHHHHHH
# Tests used:
# Peptide_012 = target: T1, Peptide_012; test: peptide microarray, 1 ug/mL
# Procedure: (§1) 5, 1, 0.2, 0.04, 0.008 and 0.0016 μg/mL serial dilutions were incubated on a single multi-well microarray slide at 30° C. for 1 hour. The slide includes 21 individual mini-arrays (one mini-array per sample dilution).
# (§2) DyLight 650 was used as a label. False-positive binding to a peptide was evaluated by performing one additional control incubation in which only a secondary antibody was applied on the same microarray slide. Before performing each step, the microarrays were washed with a washing buffer.
# Peptide_013 = target: T2, Peptide_013; test: peptide microarray, 1 ug/mL
# Procedure: as §1, §2
# Peptide_015 = target: T3, Peptide_015; test: peptide microarray, 1 ug/mL
# Procedure: as §1, §2
# Peptide_018 = target: T4, Peptide_018; test: peptide microarray, 1 ug/mL
# Procedure: as §1, §2
# Peptide_019 = target: T5, Peptide_019; test: peptide microarray, 1 ug/mL
# Procedure: as §1, §2
# Peptide_020 = target: T6, Peptide_020; test: peptide microarray, 1 ug/mL
# Procedure: as §1, §2
# Peptide_022 = target: T7, Peptide_022; test: peptide microarray, 1 ug/mL
# Procedure: as §1, §2
# Peptide_025 = target: T8, Peptide_025; test: peptide microarray, 1 ug/mL
# Procedure: as §1, §2
# Peptide_051 = target: T9, Peptide_051; test: peptide microarray, 1 ug/mL
# Procedure: as §1, §2
# Peptide_084 = target: T10, Peptide_084; test: peptide microarray, 1 ug/mL
# Procedure: as §1, §2
# Peptide_085 = target: T11, Peptide_085; test: peptide microarray, 1 ug/mL
# Procedure: as §1, §2
# Peptide_092 = target: T12, Peptide_092; test: peptide microarray, 1 ug/mL
# Procedure: as §1, §2
# Peptide_093 = target: T13, Peptide_093; test: peptide microarray, 1 ug/mL
# Procedure: as §1, §2
# Peptide_094 = target: T14, Peptide_094; test: peptide microarray, 1 ug/mL
# Procedure: as §1, §2
# Peptide_011 = target: T15, Peptide_011; test: peptide microarray, anti-mouse IgG DyLight 650, MMC2 heatmap (Example 17)
# Procedure: as §1, §2
# (§3) To visualize the obtained results and compare binding regions across individual cultures, as shown in FIGS. 21A to 21D, heatmap diagrams were calculated. In FIGS. 21A to 21D, the fluorescence intensity is expressed in a color-coded manner, white indicates no binding, and red indicates strong binding. For all evaluations, the MMC2-value of the average pixel fluorescence for each peptide was calculated.
# Peptide_027 = target: T16, Peptide_027; test: as above
# Procedure: as §1, §2, §3
# Peptide_032 = target: T17, Peptide_032; test: as above
# Procedure: as §1, §2, §3
# Peptide_067 = target: T18, Peptide_067; test: as above
# Procedure: as §1, §2, §3
# Peptide_087 = target: T19, Peptide_087; test: as above
# Procedure: as §1, §2, §3
# Peptide_090 = target: T20, Peptide_090; test: as above
# Procedure: as §1, §2, §3
# Peptide_102 = target: T21, Peptide_102; test: as above
# Procedure: as §1, §2, §3
# Peptide_002 = target: T22, Peptide_002; test: as above
# Procedure: as §1, §2, §3
# Peptide_005 [1] = target: T23, Peptide_005; test: as above
# Procedure: as §1, §2, §3
# [2] = target: T24, human thioredoxin-1 (Trx1); test: one site - total fit (Prism) of the ELISA of panel (a); the cell has no unit, the concentrations of panel (a) are in nM; paragraph 183 prints it rounded as 1.3x10^-10 [b]
# Procedure: (§4) 100 μl of a coating buffer and 100 ng of Trx1 were mixed and dispensed to each well, and then reacted at 4° C. for 16 hours or more. After the reaction solution was removed, 200 μl of PBSA was dispensed to each well and reacted at 37° C. for 120 minutes. […] After the reaction solution was removed, washing was performed by dispensing 200 μl of a washing buffer to each well. The above-described process was performed two times.
# (§5) After the reaction solution was removed, washing was performed by dispensing 200 μl of a washing buffer to each well. The above-described process was performed three times.
# Peptide_004 = target: T25, Peptide_004; test: peptide microarray, 1 ug/mL
# Procedure: as §1, §2
# Peptide_005 [3] = target: T23, Peptide_005; test: peptide microarray, 1 ug/mL
# Procedure: as §1, §2
# [4] = target: T24, human thioredoxin-1 (Trx1); test: one site - total fit (Prism) of the ELISA of panel (a); the cell has no unit, the concentrations of panel (a) are in nM; paragraph 183 prints it rounded as 1.1x10^-11 [b]
# Procedure: as §4, §5
binder,measurement,setting,value
"monoclonal antibody B264 (antibody, mouse IgG1, kappa, V domains shown, also called AB264; B264 (Trx1-mIgG1)) VH: QVQLQQSGAELARPGASVKMSCKASGYTFTSYTMHWVKQRPGQGLEWIGYINPTSDYTNYNQKFKDKATLTADKSSSTAYMQLSSLTSEDSAVYFCASEGGFLYYFDYWGQGTTLTVSS VL: DVLMTQTPLSLPVSLGDQASISCRSSQSIVHSNGNTYLEWYLQKPGQSPKLLIYKVSNRFSGVPDRFSGSGSGTDFTLKISRVEAEDLGVYYCFQGSHVPYTFGGGTKLEIKR",signal (blank-control = 1),Peptide_012,3.65
same,signal (blank-control = 1),Peptide_013,4.05
same,signal (blank-control = 1),Peptide_015,5.11
same,signal (blank-control = 1),Peptide_018,5.52
same,signal (blank-control = 1),Peptide_019,1.67
same,signal (blank-control = 1),Peptide_020,2.3
same,signal (blank-control = 1),Peptide_022,5.88
same,signal (blank-control = 1),Peptide_025,7.24
same,signal (blank-control = 1),Peptide_051,3.91
same,signal (blank-control = 1),Peptide_084,3.26
same,signal (blank-control = 1),Peptide_085,3.56
same,signal (blank-control = 1),Peptide_092,9.76
same,signal (blank-control = 1),Peptide_093,5.33
same,signal (blank-control = 1),Peptide_094,3.26
same,binding result,Peptide_011,no binding (tested: 5 ug/mL)
same,binding result,Peptide_027,no binding (tested: 5 ug/mL)
same,binding result,Peptide_032,no binding (tested: 5 ug/mL)
same,binding result,Peptide_067,no binding (tested: 5 ug/mL)
same,binding result,Peptide_087,no binding (tested: 5 ug/mL)
same,binding result,Peptide_090,no binding (tested: 5 ug/mL)
same,binding result,Peptide_102,no binding (tested: 5 ug/mL)
same,binding result,Peptide_002,no binding (tested: 5 ug/mL)
same,binding result,Peptide_005 [1],no binding (tested: 5 ug/mL)
same,Kd,[2],133 pM
"monoclonal antibody B266-1 (antibody, human IgG1, B266 with the Fc part changed to human IgG1; also called B266-1 (Trx1-hIgG1); B266-1 (hTrx1-hIgG1)) light: QIVLTQSPAIMSASPGEKVTMTCSASSRISYMYWYQQKPGTSPKRWIYDTSKLASGVPARFSGSGSGTSYSLTISTMEAEDAATYYCHQRSSYPTFGAGTKLELKSVAAPSVFIFPPSDEQLKSGTASVVCLLNNFYPREAKVQWKVDNALQSGNSQESVTEQDSKDSTYSLSSTLTLSKADYEKHKVYACEVTHQGLSSPVTKSFNRGEC heavy: not shown",signal (blank-control = 1),Peptide_004,2.71
same,signal (blank-control = 1),Peptide_005 [3],3.58
same,Kd,[4],11.2 pM
